B1: GST-Rrp6NT (domain or fragment, S. cerevisiae, UniProt Q12149 1-211, looked up)
chain: MTSENPDVLLSRVINVVRAASSLASQDVDFYKNLDRGFSKDLKSKADKLADMANEIILSIDEHHESFELKEEDISDLWNNFGNIMDNLLEMSDHSLDKLNCAINSKSRGSDLQYLGEFSGKNFSPTKRVEKPQLKFKSPIDNSESHPFIPLLKEKPNALKPLSESLRLVDDDENNPSHYPHPYEYEIDHQEYSPEILQIREEIPSKSWDDS
notes: Rrp6, S. cerevisiae, N-terminal region (Rrp6NT, holds the PMC2NT domain); The preparation held some proteolytic fragments of the GST fusion; also called Rrp6NT domain; N-terminal region of Rrp6; source: E. coli, co-lysed with cells expressing His6-Rrp47; complex purified (Ni-NTA, glutathione-Sepharose, Superdex 200)
B2: C-terminally truncated Rrp47NT protein (domain or fragment, S. cerevisiae, UniProt P38801 1-120, looked up)
chain: MEDIEKIKPYVRSFSKALDELKPEIEKLTSKSLDEQLLLLSDERAKLELINRYAYVLSSLMFANMKVLGVKDMSPILGELKRVKSYMDKAKQYDNRITKSNEKSQAEQEKAKNIISNVLD
notes: Rrp47 (Lrp1), S. cerevisiae, N-terminal domain; the discussion gives it as the first 120 amino acid residues; it probably carries a His tag like the full-length protein; also called N-terminal domain of Rrp47; Rrp47NT polypeptide
B3: Recombinant full-length His6-Rrp47 (natural protein, S. cerevisiae, UniProt P38801 1-184, looked up)
chain: MEDIEKIKPYVRSFSKALDELKPEIEKLTSKSLDEQLLLLSDERAKLELINRYAYVLSSLMFANMKVLGVKDMSPILGELKRVKSYMDKAKQYDNRITKSNEKSQAEQEKAKNIISNVLDGNKNQFEPSISRSNFQGKHTKFENDELAESTTTKIIDSTDHIRKASSKKSKRLDKVGKKKGGKK
notes: Rrp47 (also known as Lrp1), S. cerevisiae, full-length recombinant protein; On its own a non-globular homodimer (theoretical homodimer mass 50,920 Da with the tag); One copy stands in the heterodimer with Rrp6NT; also called His-Rrp47; Lrp1; source: for the complex, co-lysed with cells expressing Rrp6NT

What was measured:
[1] = biological target: B3; assay: pull-down + SEC; E. coli cells expressing His6-Rrp47 or GST-Rrp6NT lysed together; Ni-NTA, then glutathione-Sepharose, then Superdex 200; 50 mM HEPES pH 7.6, 300 mM NaCl; ratio from densitometry of the Coomassie-stained SDS-PAGE of the peak fraction
[2] = biological target: the molecule itself; assay: cross-linking; 0.01% glutaraldehyde on ice, ~40 µM protein, 50 mM HEPES pH 7.6, 300 mM NaCl; SDS-PAGE and Western blot
[3] = biological target: the molecule itself; assay: AUC; sedimentation velocity, 38,000 rpm, 20 °C, 50 mM Hepes pH 7.6, 500 mM NaCl, 0.25 and 1 mg/ml, absorbance at 280 nm, SEDFIT

Q: For B1, which “stoichiometry N” value [1] is on record?
A: Its value is 0.8 Rrp6NT per Rrp47.

Q: Which “stoichiometry N” value [2] does the source give for B2 here?
A: Its value is 2.

Q: For B3, which “stoichiometry N” value [3] is on record?
A: Its value is 2.

— publication PMC3668751, “Assembly of the Yeast Exoribonuclease Rrp6 with Its Associated Cofactor Rrp47 Occurs in the Nucleus and Is Critical for the Controlled Expression of Rrp47*” (The Journal of Biological Chemistry, 2013)
